Patent US20190055295A1

Molecular target: human FSH receptor (human) (UniProt P23945)
Assay: cell-based or functional assay

Chain of human FSH receptor (human) (P23945 18-695): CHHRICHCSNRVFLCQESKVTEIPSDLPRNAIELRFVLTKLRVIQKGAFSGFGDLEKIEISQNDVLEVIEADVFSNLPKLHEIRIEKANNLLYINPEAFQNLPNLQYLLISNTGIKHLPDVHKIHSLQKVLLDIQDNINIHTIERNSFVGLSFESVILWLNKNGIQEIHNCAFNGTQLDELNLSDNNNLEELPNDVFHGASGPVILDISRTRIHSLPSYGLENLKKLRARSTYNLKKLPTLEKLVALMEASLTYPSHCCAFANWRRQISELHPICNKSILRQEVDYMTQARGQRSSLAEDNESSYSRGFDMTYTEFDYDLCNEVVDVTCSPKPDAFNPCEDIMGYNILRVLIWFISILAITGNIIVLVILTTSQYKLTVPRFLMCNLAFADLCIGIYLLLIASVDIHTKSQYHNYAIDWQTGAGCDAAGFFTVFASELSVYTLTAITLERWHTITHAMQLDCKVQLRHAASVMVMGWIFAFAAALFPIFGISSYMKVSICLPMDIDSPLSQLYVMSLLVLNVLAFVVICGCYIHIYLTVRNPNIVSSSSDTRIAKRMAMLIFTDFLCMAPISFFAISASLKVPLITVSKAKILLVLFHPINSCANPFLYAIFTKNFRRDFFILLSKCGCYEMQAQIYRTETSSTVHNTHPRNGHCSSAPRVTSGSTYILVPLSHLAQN

50% effective concentration (EC50) of cAMP production in CHO-FSHR cells: 204 pM
in vitro biological activity relative to Gonal-F (cAMP production in CHO-FSHR cells): 50%
Substance: FSH-Fc/Fc heterodimer (from UniProt P01215 25-116; P0DOX5 223-449) (Fc fusion)
